Among the data in US11433099B2, “Immunotherapy with B*08 restricted peptides and combination of peptides against cancers and related methods” (Immatics Biotechnologies GmbH, priority 2018, dated 2022) are Peptide exchange values, retold here.

For the test, the target named is HLA-B*08:01 (Homo sapiens, UniProt P01889). The experiment in a line: MHC binding assay (UV-ligand exchange, beta2m ELISA). Conditions: MHC class I binding score; binding to HLA-B*08:01 ranged by peptide exchange yield (UV-ligand exchange, β2m ELISA). An excerpt:
Candidate peptides for T cell based therapies according to the present invention were further tested for their MHC binding capacity (affinity). The individual peptide-MHC complexes were produced by UV-ligand exchange, where a UV-sensitive peptide is cleaved upon UV-irradiation and exchanged with the peptide of interest as analyzed. Only peptide candidates that can effectively bind and stabilize the peptide-receptive MHC molecules prevent dissociation of the MHC complexes. To determine the yield of the exchange reaction, an ELISA was performed based on the detection of the light chain (β2m) of stabilized MHC complexes. The assay was performed as generally described in Rodenko et al. (Rodenko et al., 2006).
96 well MAXISorp plates (NUNC) were coated over night with 2 ug/ml streptavidin in PBS at room temperature, washed 4× and blocked for 1 h at 37° C. in 2% BSA containing blocking buffer. Refolded HLA-A*02:01/MLA-001 monomers served as standards, covering the range of 15-500 ng/ml. Peptide-MHC monomers of the UV-exchange reaction were diluted 100-fold in blocking buffer. Samples were incubated for 1 h at 37° C., washed four times, incubated with 2 ug/ml HRP conjugated anti-β2m for 1 h at 37° C., washed again and detected with TMB solution that is stopped with […]. Absorption was measured at 450 nm. Candidate peptides that show a high exchange yield (preferably higher than 50%, most preferred higher than 75%) are generally preferred for a generation and production of antibodies or fragments thereof, and/or T cell receptors or fragments thereof, as they show sufficient avidity to the MHC molecules and prevent dissociation of the MHC complexes.
(ELISA stands for enzyme-linked immunosorbent assay.)
With “225 (MPKRAHWGA; listed as Homo sapiens) [compound 225]”, the Peptide exchange entry was “+++ (50% = +++)”. As for “129 (HRILRLPAL; listed as Homo sapiens) [compound 129]”, the entry is “+++ (50% = +++)”; as for “149 (TQKSVQVL; listed as Homo sapiens) [compound 149]”, “++ (20% = ++)”; as for “203 (DVYTQVSAF; listed as Homo sapiens) [compound 203]”, “++ (20% = ++)”.

In the case of “110 (DAMTKHTL; listed as Homo sapiens) [compound 110]”, the Peptide exchange entry was “+++ (50% = +++)”. The result for “160 (LPINNTHI; listed as Homo sapiens) [compound 160]” reads “++ (20% = ++)”. Turning to “94 (DQLLRHVM; listed as Homo sapiens) [compound 94]”, the Peptide exchange result is recorded as “+++ (50% = +++)”.

Regarding “72 (LPLAHHIQL; listed as Homo sapiens) [compound 72]”, the Peptide exchange entry is “+++ (50% = +++)”.

With “69 (ELARQRLL; listed as Homo sapiens) [compound 69]”, the Peptide exchange entry is recorded as “++ (20% = ++)”.

Take “199 (IPFIHLPEI; listed as Homo sapiens) [compound 199]”: the Peptide exchange entry is recorded as “++ (20% = ++)”.

For the substance “137 (VQWKPPAL; listed as Homo sapiens) [compound 137]”, the Peptide exchange entry is given as “++ (20% = ++)”. Consider “189 (APDNVLLTL; listed as Homo sapiens) [compound 189]”, for which the Peptide exchange entry is recorded as “++ (20% = ++)”. As for “51 (ERRVKVSSL; listed as Homo sapiens) [compound 51]”, the entry is “+++ (50% = +++)”.

Regarding “96 (RPAGVFEL; listed as Homo sapiens) [compound 96]”, the Peptide exchange result was “++ (20% = ++)”. “172 (PYEKVSRL; listed as Homo sapiens) [compound 172]”: the Peptide exchange entry is listed as “++ (20% = ++)”.

Consider “238 (IPLAIARL; listed as Homo sapiens) [compound 238]”, for which the Peptide exchange result is recorded as “+++ (50% = +++)”. As for “191 (RPLKPGEVL; listed as Homo sapiens) [compound 191]”, the entry is “++ (20% = ++)”; as for “2 (QIMPKAGL; listed as Homo sapiens) [compound 2]”, “+++ (50% = +++)”; as for “243 (EGVPPGTVL; listed as Homo sapiens) [compound 243]”, “+++ (50% = +++)”. The result for “113 (MEKGLASL; listed as Homo sapiens) [compound 113]” reads “++ (20% = ++)”. The result for “227 (SRFPGMSVL; listed as Homo sapiens) [compound 227]” reads “++ (20% = ++)”. Turning to “7 (AARLRPAL; listed as Homo sapiens) [compound 7]”, the Peptide exchange entry is listed as “++ (20% = ++)”.

As for “92 (TLKAMVQAW; listed as Homo sapiens) [compound 92]”, the Peptide exchange result is recorded as “+++ (50% = +++)”. The result for “144 (IEQIRAVL; listed as Homo sapiens) [compound 144]” reads “++ (20% = ++)”; that for “81 (MYRKEQYL; listed as Homo sapiens) [compound 81]”, “++ (20% = ++)”. As for “111 (GAGLRITAPL; listed as Homo sapiens) [compound 111]”, the entry is “++ (20% = ++)”; as for “109 (IPASHPVLTL; listed as Homo sapiens) [compound 109]”, “++ (20% = ++)”; as for “194 (RAIEHVLQV; listed as Homo sapiens) [compound 194]”, “+++ (50% = +++)”. On to “164 (LPAPIPTLL; listed as Homo sapiens) [compound 164]”, for which the Peptide exchange result is “++ (20% = ++)”. The result for “121 (YSQLSISL; listed as Homo sapiens) [compound 121]” reads “++ (20% = ++)”; that for “23 (DIKKTNESL; listed as Homo sapiens) [compound 23]”, “++ (20% = ++)”; that for “15 (LLKKIEHA; listed as Homo sapiens) [compound 15]”, “++ (20% = ++)”. For the substance “179 (LPLTEHEL; listed as Homo sapiens) [compound 179]”, the Peptide exchange result was “+++ (50% = +++)”.

For “250 (AARAPPQAL; listed as Homo sapiens) [compound 250]”, the Peptide exchange entry is given as “++ (20% = ++)”. As to “223 (DVSARKLRV; listed as Homo sapiens) [compound 223]”, the Peptide exchange entry is on record as “++ (20% = ++)”. Take “105 (APLKMLALV; listed as Homo sapiens) [compound 105]”: the Peptide exchange entry is reported as “++ (20% = ++)”. As for “44 (HLTNRVLSL; listed as Homo sapiens) [compound 44]”, the entry is “+++ (50% = +++)”. For “107 (LPKGLKDWQA; listed as Homo sapiens) [compound 107]”, the Peptide exchange result is reported as “++ (20% = ++)”.

For “166 (VLSGGRILAL; listed as Homo sapiens) [compound 166]”, the Peptide exchange result was “++ (20% = ++)”.

As for “230 (DVYFHHVL; listed as Homo sapiens) [compound 230]”, the Peptide exchange entry was “++ (20% = ++)”. The result for “182 (ILHLSAIAL; listed as Homo sapiens) [compound 182]” reads “++++ (75% = ++++)”.

For “159 (DLRNKIIA; listed as Homo sapiens) [compound 159]”, the Peptide exchange entry is reported as “++ (20% = ++)”. As for “145 (MIYRKALRL; listed as Homo sapiens) [compound 145]”, the entry is “++ (20% = ++)”; as for “98 (EPVNTNVVL; listed as Homo sapiens) [compound 98]”, “++ (20% = ++)”. The result for “102 (IMKKIRESY; listed as Homo sapiens) [compound 102]” reads “+++ (50% = +++)”; that for “163 (EVMAQFKEI; listed as Homo sapiens) [compound 163]”, “++ (20% = ++)”; that for “165 (QNSLRHNL; listed as Homo sapiens) [compound 165]”, “++ (20% = ++)”. As for “180 (LAVPIFVAL; listed as Homo sapiens) [compound 180]”, the entry is “++ (20% = ++)”; as for “221 (SLKEELLSL; listed as Homo sapiens) [compound 221]”, “+++ (50% = +++)”; as for “127 (EPVIRTVSI; listed as Homo sapiens) [compound 127]”, “+++ (50% = +++)”. With “201 (TASAMQHVL; listed as Homo sapiens) [compound 201]”, the Peptide exchange result is “+++ (50% = +++)”. As for “234 (VFRVGISF; listed as Homo sapiens) [compound 234]”, the entry is “++ (20% = ++)”; as for “190 (ELLNRIYF; listed as Homo sapiens) [compound 190]”, “++ (20% = ++)”; as for “218 (DNHPRLVTL; listed as Homo sapiens) [compound 218]”, “+++ (50% = +++)”. As for “173 (YPLLKDPSL; listed as Homo sapiens) [compound 173]”, the entry is “+++ (50% = +++)”. Consider “184 (DRLKPLKM; listed as Homo sapiens) [compound 184]”, for which the Peptide exchange result was “++ (20% = ++)”. The result for “171 (FPSQVPKQVL; listed as Homo sapiens) [compound 171]” reads “++ (20% = ++)”; that for “196 (LDLRQKVL; listed as Homo sapiens) [compound 196]”, “++ (20% = ++)”; that for “12 (DFYLRSSAF; listed as Homo sapiens) [compound 12]”, “+++ (50% = +++)”.

In the case of “67 (DMNTKRAIHTL; listed as Homo sapiens) [compound 67]”, the Peptide exchange entry was “++ (20% = ++)”. As for “148 (DVNPVSLQL; listed as Homo sapiens) [compound 148]”, the entry is “++ (20% = ++)”; as for “135 (EYLETKRLAF; listed as Homo sapiens) [compound 135]”, “+ (0% = +)”.

Consider “130 (LPAPYQHQL; listed as Homo sapiens) [compound 130]”, for which the Peptide exchange entry was “++ (20% = ++)”. As for “64 (FILGREAGAL; listed as Homo sapiens) [compound 64]”, the entry is “++ (20% = ++)”; as for “28 (DPKSRLKSL; listed as Homo sapiens) [compound 28]”, “++ (20% = ++)”. As for “210 (QPNTHQLL; listed as Homo sapiens) [compound 210]”, the Peptide exchange result was “++ (20% = ++)”. As for “233 (DVKLVFVM; listed as Homo sapiens) [compound 233]”, the entry is “++ (20% = ++)”. In the case of “236 (STLKKSLEI; listed as Homo sapiens) [compound 236]”, the Peptide exchange entry was “++ (20% = ++)”.
